B1: GB1-tagged WIR-peptide Y1395A (peptide)
chain: PRDGEPVVTQLHPGPIVVRDGAFSRPIGSTD
B2: GB1-tagged WIR-peptide V1391Q (peptide)
chain: PRDGEPVVTQLHPGPIVQRDGYFSRPIGSTD
B3: GB1-tagged WIR-peptide V1381Q (peptide)
chain: PRDGEPVQTQLHPGPIVVRDGYFSRPIGSTD
B4: GB1-tagged WIR-peptide T1382Q (peptide)
chain: PRDGEPVVQQLHPGPIVVRDGYFSRPIGSTD
B5: GB1-tagged WIR-peptide I1389Q (peptide)
chain: PRDGEPVVTQLHPGPQVVRDGYFSRPIGSTD
B6: GB1-tagged WIR-peptide D1393A (peptide)
chain: PRDGEPVVTQLHPGPIVVRAGYFSRPIGSTD
B7: GB1-tagged WIR-peptide V1380A (peptide)
chain: PRDGEPAVTQLHPGPIVVRDGYFSRPIGSTD
B8: GB1-tagged WIR-peptide T1382A (peptide)
chain: PRDGEPVVAQLHPGPIVVRDGYFSRPIGSTD
B9: GB1-tagged WIR-peptide V1380Q (peptide)
chain: PRDGEPQVTQLHPGPIVVRDGYFSRPIGSTD
B10: GB1-tagged WIR-peptide V1381A (peptide)
chain: PRDGEPVATQLHPGPIVVRDGYFSRPIGSTD

Kd data for ten molecules are collected here from PMC7264293 (2020).

Broadly, the Kd is the constant that tells how readily two partners part at equilibrium. A low value points to tighter binding.

T1 sequence (Q5MNZ6 other isoform, or with tags, fused parts or gaps with the stated changes): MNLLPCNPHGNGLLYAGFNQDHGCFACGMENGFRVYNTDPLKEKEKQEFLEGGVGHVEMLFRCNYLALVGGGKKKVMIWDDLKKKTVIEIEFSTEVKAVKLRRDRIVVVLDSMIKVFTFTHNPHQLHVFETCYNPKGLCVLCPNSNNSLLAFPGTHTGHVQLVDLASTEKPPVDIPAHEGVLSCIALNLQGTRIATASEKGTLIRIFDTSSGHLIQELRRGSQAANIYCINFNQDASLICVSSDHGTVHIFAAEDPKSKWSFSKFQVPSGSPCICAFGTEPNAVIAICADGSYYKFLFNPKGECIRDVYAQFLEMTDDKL

The first assay addresses T1, WIPI3-Δloop (human, UniProt Q5MNZ6 1-344, Blade 2 B-C loop (75-80) deleted | Blade 6 C-D loop (264-281) deleted). Description: ITC. A general note: In ITC the heat of successive injections is recorded.
Regarding B1, the Kd is 391 µM.
Regarding B2, binding was characterised by a dissociation constant (Kd) of 48.9 µM.
Take B3: the dissociation constant (Kd) was 82 µM. This Kd lies about 1.7-fold higher than the previous one.
Still for that read-out and setting: then B4, with 37.2 µM; and B5, with 379 µM; and B6, with 44.4 µM.

Another assay addresses T1, WIPI3-Δloop. Description: ITC. This is another data set of the same source.
In turn, B7 returned a Kd of 36.9 µM.
With B8, the affinity, expressed as Kd, was 14.2 µM. This Kd lies about 2.6-fold lower than the previous one.
Take B9: the equilibrium dissociation constant (Kd) was 14.1 µM.
Regarding B10, binding was put at a Kd of 75.9 µM.
